The values that follow come from US10500249B2, “Compositions and methods for preventing or treating diseases, conditions, or processes characterized by aberrant fibroblast proliferation and extracellular matrix deposition” (MOERAE MATRIX, INC., priority 2014, dated 2019).

Experiment in all cases: Kinase Profiling Assay
What all share (type): biochemical
Common to all, as to conditions: 100 μM

The target of assay [1] is T1, PAK2 (h) (Homo sapiens, UniProt Q13177).
T1 construct: purchased Millipore
T1 sequence (Q13177 whole entry): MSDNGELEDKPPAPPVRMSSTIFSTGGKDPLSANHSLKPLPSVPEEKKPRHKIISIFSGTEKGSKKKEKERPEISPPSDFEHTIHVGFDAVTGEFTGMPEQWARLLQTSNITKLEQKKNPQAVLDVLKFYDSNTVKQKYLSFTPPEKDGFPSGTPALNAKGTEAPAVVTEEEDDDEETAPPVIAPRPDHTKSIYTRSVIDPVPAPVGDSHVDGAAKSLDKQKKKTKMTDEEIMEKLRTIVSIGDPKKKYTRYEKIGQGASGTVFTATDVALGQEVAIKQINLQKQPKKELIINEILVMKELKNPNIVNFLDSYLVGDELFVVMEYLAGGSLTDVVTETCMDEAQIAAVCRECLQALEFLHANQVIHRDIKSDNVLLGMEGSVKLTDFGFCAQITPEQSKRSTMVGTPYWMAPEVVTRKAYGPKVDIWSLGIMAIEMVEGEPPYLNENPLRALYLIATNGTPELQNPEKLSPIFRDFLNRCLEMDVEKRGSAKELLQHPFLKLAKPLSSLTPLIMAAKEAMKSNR
The procedure, abridged:
(§1)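 Scintillation counting quantifies radiolabeled, positively charged substrate retained on a negatively charged filter after kinase reaction with labeled ATP; inhibitor peptide present.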

Assay [2] has as its target Fes (h) (Homo sapiens, UniProt P07332). The procedure, abridged:
as §1

For assay [3], the target named is AMPKα2 (h) (Homo sapiens, UniProt P54646). The procedure, abridged: as §1
Chain of AMPKα2 (h) (P54646 whole entry): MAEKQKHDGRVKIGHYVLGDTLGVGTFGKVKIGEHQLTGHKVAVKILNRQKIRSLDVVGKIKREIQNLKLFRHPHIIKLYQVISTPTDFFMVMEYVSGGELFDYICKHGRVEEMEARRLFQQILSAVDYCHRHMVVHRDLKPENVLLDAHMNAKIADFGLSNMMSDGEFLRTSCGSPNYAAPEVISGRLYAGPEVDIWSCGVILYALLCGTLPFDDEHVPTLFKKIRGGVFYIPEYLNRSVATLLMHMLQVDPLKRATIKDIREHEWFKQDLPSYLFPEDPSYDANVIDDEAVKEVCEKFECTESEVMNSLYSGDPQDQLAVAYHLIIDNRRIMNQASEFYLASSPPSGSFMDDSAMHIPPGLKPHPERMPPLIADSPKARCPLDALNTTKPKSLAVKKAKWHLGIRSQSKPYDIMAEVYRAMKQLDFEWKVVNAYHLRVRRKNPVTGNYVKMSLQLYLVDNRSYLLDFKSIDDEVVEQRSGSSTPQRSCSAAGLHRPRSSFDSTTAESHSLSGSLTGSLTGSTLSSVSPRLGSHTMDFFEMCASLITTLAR
Chain of AMPKα2 (h) (Q9Y478 whole entry partner): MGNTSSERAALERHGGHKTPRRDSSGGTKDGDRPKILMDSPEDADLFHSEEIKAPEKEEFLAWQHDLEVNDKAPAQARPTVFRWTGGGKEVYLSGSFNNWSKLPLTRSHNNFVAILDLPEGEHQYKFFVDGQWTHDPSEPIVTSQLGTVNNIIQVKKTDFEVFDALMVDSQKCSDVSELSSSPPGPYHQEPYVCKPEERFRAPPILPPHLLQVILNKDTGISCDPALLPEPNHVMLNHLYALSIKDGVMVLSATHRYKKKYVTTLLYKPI
Chain of AMPKα2 (h) (P54619 whole entry partner): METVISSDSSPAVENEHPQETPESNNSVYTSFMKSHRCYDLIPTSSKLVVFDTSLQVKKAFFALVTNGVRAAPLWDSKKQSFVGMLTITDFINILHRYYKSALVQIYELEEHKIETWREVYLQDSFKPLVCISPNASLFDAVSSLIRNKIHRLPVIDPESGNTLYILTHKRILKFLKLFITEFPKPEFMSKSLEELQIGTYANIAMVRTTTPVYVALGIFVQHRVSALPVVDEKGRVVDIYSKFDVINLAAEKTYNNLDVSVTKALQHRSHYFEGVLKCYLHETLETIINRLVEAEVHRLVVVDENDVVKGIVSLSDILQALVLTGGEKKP
The target of assay [4] is Lyn (h) (Homo sapiens, UniProt P07948). The procedure, abridged: as §1
Chain of Lyn (h) (P07948 whole entry): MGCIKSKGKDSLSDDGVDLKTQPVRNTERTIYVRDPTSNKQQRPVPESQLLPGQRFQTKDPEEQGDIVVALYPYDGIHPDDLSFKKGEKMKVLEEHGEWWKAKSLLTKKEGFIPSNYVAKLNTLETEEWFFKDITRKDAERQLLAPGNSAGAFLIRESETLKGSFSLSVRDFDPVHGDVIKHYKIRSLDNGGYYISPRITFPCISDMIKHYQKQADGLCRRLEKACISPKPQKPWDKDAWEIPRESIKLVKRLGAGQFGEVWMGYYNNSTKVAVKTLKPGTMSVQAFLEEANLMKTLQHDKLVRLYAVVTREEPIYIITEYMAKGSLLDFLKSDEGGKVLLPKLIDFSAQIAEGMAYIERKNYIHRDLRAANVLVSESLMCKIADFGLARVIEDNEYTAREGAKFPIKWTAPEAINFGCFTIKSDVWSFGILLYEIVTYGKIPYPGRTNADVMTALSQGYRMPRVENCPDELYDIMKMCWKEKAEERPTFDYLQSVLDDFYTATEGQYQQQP
Assay [5] deals with T2, NLK (h) (Homo sapiens, UniProt Q9UBE8).
T2 construct: purchased Millipore
T2 sequence (Q9UBE8 1-527): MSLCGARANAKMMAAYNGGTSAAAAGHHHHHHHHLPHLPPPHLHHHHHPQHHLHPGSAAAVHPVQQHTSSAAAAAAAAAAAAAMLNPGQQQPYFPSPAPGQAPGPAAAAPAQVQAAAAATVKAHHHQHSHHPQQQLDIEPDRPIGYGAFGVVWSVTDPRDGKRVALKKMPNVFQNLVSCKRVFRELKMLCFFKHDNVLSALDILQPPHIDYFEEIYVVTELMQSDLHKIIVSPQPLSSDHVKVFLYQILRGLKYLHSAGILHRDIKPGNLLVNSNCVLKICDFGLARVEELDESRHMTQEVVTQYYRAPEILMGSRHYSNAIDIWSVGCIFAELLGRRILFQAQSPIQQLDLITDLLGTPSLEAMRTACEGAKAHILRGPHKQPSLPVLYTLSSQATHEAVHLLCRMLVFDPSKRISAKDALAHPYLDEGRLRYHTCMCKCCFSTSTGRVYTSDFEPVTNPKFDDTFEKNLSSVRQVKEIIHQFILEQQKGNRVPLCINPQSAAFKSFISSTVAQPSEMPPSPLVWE
The procedure, abridged: as §1

Assay [6] deals with PKCη (h) (Homo sapiens, UniProt P24723). The procedure, abridged: as §1
Chain of PKCη (h) (P24723 whole entry): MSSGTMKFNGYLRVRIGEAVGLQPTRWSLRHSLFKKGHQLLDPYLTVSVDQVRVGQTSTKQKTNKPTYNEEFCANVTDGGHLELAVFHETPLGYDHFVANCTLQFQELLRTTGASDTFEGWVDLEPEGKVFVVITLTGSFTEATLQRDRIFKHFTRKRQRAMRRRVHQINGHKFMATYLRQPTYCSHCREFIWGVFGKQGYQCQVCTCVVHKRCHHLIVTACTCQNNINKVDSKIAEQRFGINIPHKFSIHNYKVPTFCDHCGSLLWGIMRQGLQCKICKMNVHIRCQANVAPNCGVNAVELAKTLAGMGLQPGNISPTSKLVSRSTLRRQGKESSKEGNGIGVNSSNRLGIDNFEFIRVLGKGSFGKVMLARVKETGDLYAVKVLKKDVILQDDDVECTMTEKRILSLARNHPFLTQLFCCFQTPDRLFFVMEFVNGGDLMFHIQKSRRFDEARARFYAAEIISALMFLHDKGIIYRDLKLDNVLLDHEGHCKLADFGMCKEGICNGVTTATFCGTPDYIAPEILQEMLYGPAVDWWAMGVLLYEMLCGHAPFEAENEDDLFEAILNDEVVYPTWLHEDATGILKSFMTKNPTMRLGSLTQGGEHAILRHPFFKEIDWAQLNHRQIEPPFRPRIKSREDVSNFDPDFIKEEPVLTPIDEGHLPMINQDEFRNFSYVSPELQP
The target in assay [7] is T3, TAO3 (h) (Homo sapiens, UniProt Q9H2K8).
T3 sequence (Q9H2K8 1-898): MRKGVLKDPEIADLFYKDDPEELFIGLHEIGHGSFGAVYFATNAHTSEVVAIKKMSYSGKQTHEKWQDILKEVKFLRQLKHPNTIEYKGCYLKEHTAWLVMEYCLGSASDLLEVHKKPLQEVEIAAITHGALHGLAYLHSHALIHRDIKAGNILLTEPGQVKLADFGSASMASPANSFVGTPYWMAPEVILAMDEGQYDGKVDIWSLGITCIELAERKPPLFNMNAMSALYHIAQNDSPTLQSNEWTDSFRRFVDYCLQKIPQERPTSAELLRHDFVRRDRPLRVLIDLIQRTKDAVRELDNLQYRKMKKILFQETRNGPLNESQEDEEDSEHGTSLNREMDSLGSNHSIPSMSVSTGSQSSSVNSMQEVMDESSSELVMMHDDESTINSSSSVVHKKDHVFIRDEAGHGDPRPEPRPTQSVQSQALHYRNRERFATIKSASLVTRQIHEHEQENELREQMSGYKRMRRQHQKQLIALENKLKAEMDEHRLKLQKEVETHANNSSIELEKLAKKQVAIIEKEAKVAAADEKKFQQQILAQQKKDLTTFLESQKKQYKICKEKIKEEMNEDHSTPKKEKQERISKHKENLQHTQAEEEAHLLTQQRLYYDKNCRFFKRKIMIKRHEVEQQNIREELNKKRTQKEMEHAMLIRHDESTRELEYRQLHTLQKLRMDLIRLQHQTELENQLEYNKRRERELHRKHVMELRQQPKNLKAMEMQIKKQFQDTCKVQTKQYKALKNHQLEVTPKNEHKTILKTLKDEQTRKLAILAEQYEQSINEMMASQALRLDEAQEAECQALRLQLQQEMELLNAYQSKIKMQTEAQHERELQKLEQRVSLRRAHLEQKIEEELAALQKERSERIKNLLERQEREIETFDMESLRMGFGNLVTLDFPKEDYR
The procedure, abridged:
as §1

Assay [8] addresses Tie2(Y897S) (h) (Homo sapiens, UniProt Q02763, Y897S). The procedure, abridged: as §1
Assay [9] concerns the target T4, IKKβ (h) (Homo sapiens, UniProt O14920).
T4 construct: purchased Millipore
T4 sequence (O14920 1-756): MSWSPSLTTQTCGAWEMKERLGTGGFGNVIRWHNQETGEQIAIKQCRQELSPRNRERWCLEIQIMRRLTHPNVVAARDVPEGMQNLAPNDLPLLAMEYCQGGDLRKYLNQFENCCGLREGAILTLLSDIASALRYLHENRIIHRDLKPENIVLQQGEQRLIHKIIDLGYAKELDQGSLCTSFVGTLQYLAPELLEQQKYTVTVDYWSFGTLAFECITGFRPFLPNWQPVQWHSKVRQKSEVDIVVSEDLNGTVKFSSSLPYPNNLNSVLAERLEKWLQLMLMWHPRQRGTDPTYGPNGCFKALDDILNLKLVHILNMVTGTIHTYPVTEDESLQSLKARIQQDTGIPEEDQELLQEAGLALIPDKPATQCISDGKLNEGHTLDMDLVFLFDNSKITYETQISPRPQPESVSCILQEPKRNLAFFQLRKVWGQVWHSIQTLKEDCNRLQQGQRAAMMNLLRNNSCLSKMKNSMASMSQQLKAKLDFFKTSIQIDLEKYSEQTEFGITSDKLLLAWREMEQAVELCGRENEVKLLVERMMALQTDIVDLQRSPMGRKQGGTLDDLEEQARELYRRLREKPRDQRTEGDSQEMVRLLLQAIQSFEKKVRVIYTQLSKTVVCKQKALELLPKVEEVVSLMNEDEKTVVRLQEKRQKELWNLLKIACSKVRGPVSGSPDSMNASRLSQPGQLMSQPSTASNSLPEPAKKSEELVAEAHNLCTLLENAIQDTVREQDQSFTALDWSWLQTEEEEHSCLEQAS
The procedure, abridged:
as §1

Assay [10] has as its target Syk (h) (Homo sapiens, UniProt P43405). The procedure, abridged: as §1
In assay [11] the target is T5, Pim-2 (h) (Homo sapiens, UniProt Q9P1W9).
T5 construct: purchased Millipore
T5 sequence (Q9P1W9 whole entry): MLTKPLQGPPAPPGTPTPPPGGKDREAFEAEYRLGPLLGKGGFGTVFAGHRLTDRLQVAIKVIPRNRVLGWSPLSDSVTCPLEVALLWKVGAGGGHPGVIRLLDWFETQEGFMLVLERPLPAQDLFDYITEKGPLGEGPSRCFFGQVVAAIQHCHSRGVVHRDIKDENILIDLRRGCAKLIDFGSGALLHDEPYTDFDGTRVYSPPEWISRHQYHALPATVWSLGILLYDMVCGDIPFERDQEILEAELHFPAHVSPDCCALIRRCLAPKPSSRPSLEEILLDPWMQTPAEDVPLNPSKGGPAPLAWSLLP
The procedure, abridged: as §1

Chain of Fes (h) (P07332 whole entry): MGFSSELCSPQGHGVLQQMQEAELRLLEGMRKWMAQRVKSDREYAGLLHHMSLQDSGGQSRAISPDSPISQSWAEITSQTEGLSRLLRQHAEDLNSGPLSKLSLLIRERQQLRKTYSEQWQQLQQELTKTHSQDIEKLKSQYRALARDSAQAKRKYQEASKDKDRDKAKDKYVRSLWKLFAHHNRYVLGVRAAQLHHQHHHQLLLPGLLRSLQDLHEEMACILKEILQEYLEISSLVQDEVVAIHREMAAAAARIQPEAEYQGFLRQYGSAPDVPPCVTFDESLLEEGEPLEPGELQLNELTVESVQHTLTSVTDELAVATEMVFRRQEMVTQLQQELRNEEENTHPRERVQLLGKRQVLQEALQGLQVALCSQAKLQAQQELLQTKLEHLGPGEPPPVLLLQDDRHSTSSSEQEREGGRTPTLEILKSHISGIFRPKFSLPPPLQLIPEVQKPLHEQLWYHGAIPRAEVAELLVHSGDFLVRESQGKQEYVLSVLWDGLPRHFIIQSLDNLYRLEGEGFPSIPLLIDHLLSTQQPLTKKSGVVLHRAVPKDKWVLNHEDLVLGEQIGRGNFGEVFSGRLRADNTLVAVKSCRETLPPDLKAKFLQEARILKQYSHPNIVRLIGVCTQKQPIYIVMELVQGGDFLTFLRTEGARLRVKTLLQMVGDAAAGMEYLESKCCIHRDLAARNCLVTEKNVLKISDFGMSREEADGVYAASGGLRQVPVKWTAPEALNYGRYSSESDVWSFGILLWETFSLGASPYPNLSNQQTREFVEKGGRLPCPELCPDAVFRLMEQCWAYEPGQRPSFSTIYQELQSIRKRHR

For KAFAKLAARLYRKALARQLGVAA [MMI-0400], the “% activity” value in assay [1] is on record as 59%; in assay [2], 16%; in assay [3], 58%; in assay [4] it was 3%; in [5] it was 90%; in assay [6], 98%. Besides, the “% activity” value came out at 67% in assay [7]; 87% in assay [8]; 84% in assay [9]; 9% in [10]; 92% in assay [11].
Turning to “YARAAARQARAKALNRQLGVA (Mammalian) [MMI-0200]”, the “% activity” value in assay [1] worked out at 69%; in assay [2], 74%; in assay [3], 88%; in [4], 98%; in [6] it was 101%; in [8], 85%. The “% activity” value is on record as 36% in [10] and 74% in assay [11].
“HRRIKAWLKKIKALARQLGVAA (Mammalian) [MMI-0500]”: the “% activity” value in assay [1] is reported as 44%; in [2], 23%; in assay [3] it was 9%; in assay [4] it was 31%; in assay [5], 19%; in assay [6], 45%. Moreover, the “% activity” value in assay [7] is reported as 12%; in assay [8], 80%; in [9], 71%; in [10], 5%; in assay [11], 46%.
For the sequence FAKLAARLYRKALARQLGVAA [MMI-0300], the “% activity” value in assay [1] worked out at 65%; in [2], 20%; in assay [3] it was 54%; in assay [4] it was 69%; in assay [5], 87%; in [7] it was 77%. For the same sequence, the “% activity” value in assay [8] stood at 83%; in [9] it was 84%; in assay [10], 24%; in assay [11], 76%.
